Target: T1, IB1 280-714 (Rattus, UniProt Q9R237 SEQ:280-714)
T1 sequence: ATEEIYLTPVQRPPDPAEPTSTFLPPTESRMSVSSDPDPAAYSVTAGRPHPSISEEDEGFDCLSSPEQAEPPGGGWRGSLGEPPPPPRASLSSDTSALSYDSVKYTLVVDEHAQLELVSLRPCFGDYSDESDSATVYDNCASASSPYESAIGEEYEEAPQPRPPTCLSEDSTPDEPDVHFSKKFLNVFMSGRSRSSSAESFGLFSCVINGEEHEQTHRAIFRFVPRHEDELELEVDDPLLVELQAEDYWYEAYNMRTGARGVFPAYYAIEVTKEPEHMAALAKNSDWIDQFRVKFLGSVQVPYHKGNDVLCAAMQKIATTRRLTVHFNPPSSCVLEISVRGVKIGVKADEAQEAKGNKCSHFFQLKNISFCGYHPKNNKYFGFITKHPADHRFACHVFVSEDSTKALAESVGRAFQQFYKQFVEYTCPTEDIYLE
Test: SouthWestern
Details: tags: bacterially produced; label: 32P

B1: GTII (dsDNA)
DNA 1: GTAAAGGGTGTATTGATTGGATTACCATCAATACTCAGCTTCT
DNA 2: AGAAGCTGAGTATTGATGGTAATCCAATCAATACACCCTTTAC
B1: binds.
